For five molecules, Kd results are on record in publication PMC10699557 (2023).

Numbered stars: 1 amine (or outer) side, 2 acyl side, 3 side chain; on linkers, the order of the positions; unused ones are H or OH. Bridge positions count the residues as written; N and C are the ends. Primed or numbered codes have the meaning given here. Ends that are not written are not given here. DVP = divinylpyrimidine, c1nc(CC[*:1])cc(CC[*:2])n1; DVT″ = divinyltriazine

The target in experiment [1] is HumRadA22. The experiment can be described thus: FP.
Experiment [2] deals with HumRadA22. The experiment can be described thus: ITC. A general note: ITC needs no label: the signal is the heat of the interaction.
The target of experiment [3] is HumRadA22. The experiment can be described thus: ITC. This is another data set of the same source.

B1: SP24, tag-free, stapled with DVP (peptide)
chain: GFSGFSTASGKKLNVSCQALQKACKLFSG
modifications: linker 17-24 via DVP
One may read the Kd as the concentration at which binding is half-saturated. As for B1, the Kd came to 13 nM in the experiment with HumRadA22 [1] and 21 nM in the experiment with HumRadA22 [2].

B2: SP2, tag-free, stapled with DVT (peptide)
chain: GSVNSSAFSGFSTASGKKLNVSCEALQKACKLFSDI
modifications: linker 23-30 via DVT″
B2 yielded a Kd with HumRadA22 [2] of 17 nM. This lies in the double-digit nanomolar range.

B3: BRC8-2 template (peptide)
chain: VNSSAFSGFSTASGKKLNVSTEALQKAVKLFSDIENIS
In the experiment with HumRadA22 [2], B3 registered a Kd of 4 nM.

B4: SP31 (peptide)
chain: RRRRRRRRRGCSGFSTASGKKLNVSTQACQKAVKLFSG
modifications: stapled (linker not stated for SP31)
B4 had a Kd with HumRadA22 [3] of 44 nM.

B5: SP30, tag-free, stapled with DVP (peptide)
chain: GCSGFSTASGKKLNVSTQACQKAVKLFSG
modifications: linker 2-20 via DVP (inferred)
For the molecule B5, the dissociation constant Kd with HumRadA22 [1] worked out at 13 nM; with HumRadA22 [2], 26 nM.
